{"source": "patent US20020034537A1", "about": "“Cationic diagnostic, imaging and therapeutic agents associated with activated vascular sites” (priority 2000, published 2002)", "key": {"[1]": {"details": "normal tissues, Adamson et al. (1988); cited from earlier work"}, "[2]": {"assay": "Time constant of plasma clearance", "format": "in vivo, SCID mice", "details": "i.v. bolus, arterial blood within 30 min"}, "[3]": {"details": "Data from Yuan et al. (1995); cited from earlier work"}, "[4]": {"details": "Data from Yuan et al. (1995); cited from earlier work", "remark": "listed apart in the source"}, "[5]": {"assay": "Isoelectric focusing of charge-modified proteins", "format": "physicochemical", "method": "Isoelectric points of the proteins were determined by isoelectric focusing using polyacrylamide gel slabs on a vertical electrofocusing apparatus. pl was quantified by comparison with protein standards (Bio-Rad) after Coomassie Blue staining of the gels. The molecular weights of the proteins were analyzed by SDS-PAGE (Mini-Protean II; Bio-Rad) with and without reducing agent P-mercaptoethanol in the sample buffer."}}, "note": "Where two headings read alike, the source gives them in different places.", "data": [{"substance": "(x-lactalbumin: protein, MW=14,176; net charge −10 (Adamson et al. 1988)", "values": [{"measurement": "microvascular permeability relative to ribonuclease", "setting": "[1]", "result": "approximately 50%"}]}, {"substance": "Anionized BSA: rhodamine-labeled bovine serum albumin anionized by succinylation", "values": [{"measurement": "Median K, time constant of concentration decay in the plasma", "setting": "[2]", "result": "40.8 100s"}]}, {"substance": "Native BSA: fluorescently labeled native bovine serum albumin, data from Yuan et al. (1995)", "values": [{"measurement": "pI (range)", "setting": "[3]", "result": 4.5}, {"measurement": "Median K, time constant of concentration decay in the plasma", "setting": "[4]", "result": "80.5 100s"}]}, {"substance": "Cationized BSA: rhodamine-labeled bovine serum albumin cationized by conjugation with hexamethylenediamine", "values": [{"measurement": "Median K, time constant of concentration decay in the plasma", "setting": "[2]", "result": "12.7 100s"}, {"measurement": "pI (range)", "setting": "[5]", "result": "8.6-9.1"}]}]}
